# Laboratory results: the supplement of paper PMC9112550, “Optimization of the antimicrobial peptide Bac7 by deep mutational scanning” (BMC Biology, 2022)
# System: Escherichia coli TOP10
# Experiment: shrunken log2 fold change of peptide-encoding DNA abundance (4.5 h post-induction vs induction); higher = less antimicrobial activity (less host growth inhibition)
# Conditions: time post-induction: 4.5 h; library: site-saturation at positions 5, 18, 19, 20
# 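Note: peptides expressed intracellularly from a pBAD plasmid library in pooled LB shake-flask culture, induced with 0.3% L-arabinose, DNA abundance read by NGS, three biological replicates, DESeq2 with apeglm shrinkage.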
row,Sequence,shrunken log2 fold change
1,RRIRNRPPRLPRPRPRPKFVPRP,-0.0126
2,RRIRERPPRLPRPRPRPRCAPRP,0.228
3,RRIRRRPPRLPRPRPRPVVDPRP,0.372
4,RRIRNRPPRLPRPRPRPRWVPRP,-0.172
5,RRIRNRPPRLPRPRPRPCCHPRP,-0.00931
6,RRIRPRPPRLPRPRPRPMIAPRP,-0.0488
7,RRIRCRPPRLPRPRPRPMVMPRP,0.0583
8,RRIRQRPPRLPRPRPRPMCYPRP,-0.01
9,RRIRVRPPRLPRPRPRPLQPPRP,0.158
10,RRIRWRPPRLPRPRPRPPLLPRP,0.395
11,RRIRMRPPRLPRPRPRPGGVPRP,0.952
12,RRIRYRPPRLPRPRPRPHSFPRP,-0.00356
13,RRIRIRPPRLPRPRPRPQKRPRP,-0.143
14,RRIRDRPPRLPRPRPRPDYLPRP,0.0544
15,RRIRDRPPRLPRPRPRPAPDPRP,0.533
16,RRIRTRPPRLPRPRPRPHTGPRP,-0.34
17,RRIRSRPPRLPRPRPRPGQCPRP,0.0202
18,RRIRCRPPRLPRPRPRPHHHPRP,-0.815
19,RRIRPRPPRLPRPRPRPEWCPRP,-0.0771
20,RRIRQRPPRLPRPRPRPGVMPRP,-0.0819
21,RRIRNRPPRLPRPRPRPWPIPRP,-0.0597
22,RRIRTRPPRLPRPRPRPDMKPRP,-0.0377

row,Sequence,shrunken log2 fold change
1,RRIRGRPPRLPRPRPRPEKCPRP,0.599
2,RRIRERPPRLPRPRPRPFIGPRP,-0.0528
3,RRIRKRPPRLPRPRPRPAVGPRP,0.472
4,RRIRQRPPRLPRPRPRPFIVPRP,-0.136
5,RRIRKRPPRLPRPRPRPSKMPRP,0.025
6,RRIRGRPPRLPRPRPRPLNPPRP,0.215
7,RRIRNRPPRLPRPRPRPYNTPRP,-1.49
8,RRIRMRPPRLPRPRPRPTIDPRP,0.0912
9,RRIRHRPPRLPRPRPRPINHPRP,-0.97
10,RRIRTRPPRLPRPRPRPNQNPRP,-0.168
11,RRIRSRPPRLPRPRPRPKQDPRP,0.0172
12,RRIRTRPPRLPRPRPRPYSVPRP,-0.027
13,RRIRERPPRLPRPRPRPMIAPRP,0.121
14,RRIRVRPPRLPRPRPRPMLKPRP,-0.293
15,RRIRIRPPRLPRPRPRPNLQPRP,-0.285
16,RRIRIRPPRLPRPRPRPTDSPRP,-0.237
17,RRIRSRPPRLPRPRPRPAARPRP,0.247
18,RRIRCRPPRLPRPRPRPNLRPRP,-0.315
19,RRIRHRPPRLPRPRPRPSYSPRP,-0.314
20,RRIRVRPPRLPRPRPRPGVRPRP,0.188
21,RRIRNRPPRLPRPRPRPDETPRP,-0.00208
22,RRIRCRPPRLPRPRPRPHHFPRP,-0.219

row,Sequence,shrunken log2 fold change
1,RRIRSRPPRLPRPRPRPMVHPRP,-0.026
2,RRIRKRPPRLPRPRPRPQFFPRP,-0.493
3,RRIRFRPPRLPRPRPRPSNWPRP,-0.284
4,RRIRVRPPRLPRPRPRPVDFPRP,-0.289
5,RRIRQRPPRLPRPRPRPAVFPRP,-0.0406
6,RRIRQRPPRLPRPRPRPGSEPRP,0.0985
7,RRIRTRPPRLPRPRPRPTVKPRP,3.07
8,RRIRSRPPRLPRPRPRPPLEPRP,0.367
9,RRIRNRPPRLPRPRPRPDSMPRP,-0.0386
10,RRIRIRPPRLPRPRPRPVWMPRP,0.11
11,RRIRDRPPRLPRPRPRPQVIPRP,-0.0205
12,RRIRMRPPRLPRPRPRPPQCPRP,0.566
13,RRIRPRPPRLPRPRPRPANKPRP,-0.267
14,RRIRMRPPRLPRPRPRPWKGPRP,-0.00192
15,RRIRKRPPRLPRPRPRPPECPRP,0.0514
16,RRIRMRPPRLPRPRPRPHACPRP,-0.0695
17,RRIRSRPPRLPRPRPRPYQNPRP,-0.511
18,RRIRGRPPRLPRPRPRPPAGPRP,1.37
19,RRIRLRPPRLPRPRPRPGYKPRP,-0.514
20,RRIRPRPPRLPRPRPRPCLWPRP,0.0902
21,RRIRIRPPRLPRPRPRPDVDPRP,-0.297
22,RRIRRRPPRLPRPRPRPENPPRP,0.541

row,Sequence,shrunken log2 fold change
1,RRIRWRPPRLPRPRPRPTIAPRP,0.367
2,RRIRERPPRLPRPRPRPKSFPRP,0.0203
3,RRIRKRPPRLPRPRPRPLILPRP,-0.265
4,RRIRHRPPRLPRPRPRPSCRPRP,-0.105
5,RRIRFRPPRLPRPRPRPCHAPRP,-0.193
6,RRIRFRPPRLPRPRPRPKEIPRP,-0.0277
7,RRIRWRPPRLPRPRPRPSGIPRP,0.146
8,RRIRLRPPRLPRPRPRPGHWPRP,0.279
9,RRIRVRPPRLPRPRPRPEVRPRP,0.0429
10,RRIRQRPPRLPRPRPRPCVFPRP,-0.049
11,RRIRCRPPRLPRPRPRPYHKPRP,-0.743
12,RRIRFRPPRLPRPRPRPPTEPRP,0.438
13,RRIRMRPPRLPRPRPRPGVMPRP,0.633
14,RRIRSRPPRLPRPRPRPCPDPRP,-0.388
15,RRIRSRPPRLPRPRPRPVSHPRP,-0.188
16,RRIRQRPPRLPRPRPRPSRAPRP,0.19
17,RRIRPRPPRLPRPRPRPVKKPRP,-0.016
18,RRIRTRPPRLPRPRPRPIMSPRP,-0.152
19,RRIRVRPPRLPRPRPRPVRLPRP,0.44
20,RRIRNRPPRLPRPRPRPHYLPRP,-0.218
21,RRIRLRPPRLPRPRPRPQSSPRP,-0.419
22,RRIRTRPPRLPRPRPRPKHFPRP,-0.0888

row,Sequence,shrunken log2 fold change
1,RRIRPRPPRLPRPRPRPRVVPRP,0.341
2,RRIRDRPPRLPRPRPRPGPRPRP,0.787
3,RRIRARPPRLPRPRPRPEKLPRP,0.758
4,RRIRFRPPRLPRPRPRPEVNPRP,0.0557
5,RRIRKRPPRLPRPRPRPFNMPRP,0.0229
6,RRIRKRPPRLPRPRPRPQIFPRP,-0.0259
7,RRIRFRPPRLPRPRPRPLYKPRP,-0.813
8,RRIRPRPPRLPRPRPRPLVTPRP,-0.302
9,RRIRRRPPRLPRPRPRPKMEPRP,0.282
10,RRIRPRPPRLPRPRPRPMKVPRP,-0.0686
11,RRIRERPPRLPRPRPRPIAFPRP,0.0152
12,RRIRTRPPRLPRPRPRPPPQPRP,0.848
13,RRIRPRPPRLPRPRPRPWMDPRP,-0.934
14,RRIRPRPPRLPRPRPRPFIPPRP,-0.266
15,RRIRPRPPRLPRPRPRPYSVPRP,-1.01
16,RRIRRRPPRLPRPRPRPDFRPRP,0.118
17,RRIRWRPPRLPRPRPRPASPPRP,0.131
18,RRIRNRPPRLPRPRPRPELHPRP,0.102
19,RRIRARPPRLPRPRPRPTEAPRP,0.453
20,RRIRWRPPRLPRPRPRPYGTPRP,-0.232
21,RRIRCRPPRLPRPRPRPGELPRP,0.139
